Drawing on patent publication US20220089736A1, this text covers EC50 for two molecules.

Assay [1] concerns the target CD28 (Cluster of Differentiation 28) (human) (UniProt P10747). Description: flow cytometry, binding to human pan T cells; antibody without Vβ17 arm.
Assay [2] has the same target. Description: flow cytometry, binding to H929 cells (carry CD28 and BCMA; binding largely dependent upon CD28 arm). On the technique in general: Flow cytometry measures light scatter and fluorescence of single cells or particles in a stream.

B1: VB28B9 (protein, part only; not given: scFvs, linkers, constant regions, not shown: another chain or arm of the molecule; a dimerising Fc or GST; small tags and cut ends)
VH: QVQLQQWGAGLLKPSETLSLTCAVYGGSFSGYYWNWIRQPPGKGLQWIGEINHSGTTNYNPSLKSRVTISVDTSKNQFSLKLSSLTAADTAVYYCARGEAVALYWGQGTLVTVSS
VL: EIVMTQSPATLSVSPGERATLSCRASQSVNSNLAWYQQKPGQAPRLLIYGASARATGIPARFSGSGSGTEFTLTISSLQSEDFAVYYCQQYYNWPLTFGGGTKVEIK
What is called EC50 is the concentration giving half of the maximal effect. Read a high EC50 as a need for much substance. For the molecule B1, the 50% effective concentration (EC50) was 0.15 µg/mL in assay [1] and 0.14 µg/mL in assay [2].

B2: VB28B7 (protein, part only; not given: scFvs, linkers, constant regions, not shown: another chain or arm of the molecule; a dimerising Fc or GST; small tags and cut ends)
VH: QVQLQQPGSELVRPGASVKLSCKASGYTFTSYWMHWVKQRHGQGLEWIGNIYPGSGRTNYDEKFKSKGTLTVDTSSRTAYMHLSSLTSEDSAVYYCTREHYGSNSHPMDYWGQGTSVTVSS
VL: DIQMTQSPASLSASVGETVTITCGASENIYGSLNWYQRKQGKSPQLLIYGATNLADGMSSRFSGSGSGRQFSLKISSLHPDDVATYYCQNLLSTPYTFGGGTKLELK
On to B2, for which the EC50 in assay [1] is 0.06 µg/mL; in assay [2] it was 0.1 µg/mL.
